From US20260256941A1

Molecular target: PD-1 receptor on the surface of T cells (human) (UniProt Q15116)
Assay: cell-based or functional assay

Sequence of UniProt Q15116 (Q15116 25-288): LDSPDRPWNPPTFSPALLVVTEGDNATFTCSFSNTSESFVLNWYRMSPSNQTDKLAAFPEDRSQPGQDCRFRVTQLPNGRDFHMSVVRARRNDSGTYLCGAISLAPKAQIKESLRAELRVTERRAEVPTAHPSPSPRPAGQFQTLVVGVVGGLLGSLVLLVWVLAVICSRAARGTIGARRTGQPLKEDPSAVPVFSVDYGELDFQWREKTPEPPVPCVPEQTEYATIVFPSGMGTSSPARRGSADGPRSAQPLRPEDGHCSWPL

Q: “PD-L1 traditional exosome (PD-L1 displayed by traditional engineering methods) (ligand)” was tested. Which percentage of activated (CD8+CD25+) T cells, flow cytometry; PD-L1 traditional exosome; unmodified exosome 34.1% did it give?
A: 22.5%
